This is an account of results in paper PMC4450660, “Biochemical and Structural Characterization of Enolase from Chloroflexus aurantiacus: Evidence for a Thermophilic Origin” (Frontiers in Bioengineering and Biotechnology, 2015).

The data set deals with the molecule itself. The experiment in a line: SEC; native molecular weight of purified EnoCa (~92-96 kDa against a ~46 kDa subunit on SDS gel); gel filtration on Sephacryl S-300 (2.5 x 100 cm), 1 ml/min, is a step of the purification; the data are in Figures S1-S3.

B1: enolase-1 from Chloroflexus aurantiacus (enzyme, Chloroflexus aurantiacus strain J.10.fl., UniProt A9WCM4 1-426, looked up)
chain: MSTLIEAIVAREVLDSRGNPTIEVDVRLESGDVGRAIVPSGASTGAHEALELRDGDKSRYNGKGVLKAVQAVNEDIAEALIGFDAADQIALDQELIALDGTPNKSKLGANAILGVSLAAAKAAAAAFGLPLYRYLGGVYAHVLPVPMMNIMNGGQHATNSTDFQEFMIMPVGAESFREGLRWGAEIYHMLKKVIHDRGFSTTVGDEGGFAPSLPTNDAPLQLIMEAIEKAGYRPGEQIVIALDPATTEIFEDGKYHLKREGRSLSSAEMVDYWVDLVNRYPIISLEDGLAEDDWEGWALLRAKLGDRVQLVGDDFLVTNVQRLQRAIEAKAANSILIKLNQIGSLTETLSAIQLAQRSGWTAVVSHRSGESEDVTIADLVVATNAGQIKTGAPARTDRIAKYNQLLRIEEELGSAARYAGRSAFKV
notes: enolase-1 (2-phospho-D-glycerate hydrolyase, EC 4.2.1.11) of Chloroflexus aurantiacus strain J.10.fl., endogenous protein; subunit ~46 kDa by SDS-PAGE; Native protein purified from the organism, no tags; also called EnoCa; EnoCa-1
In the case of B1, the “stoichiometry N” value stood at 2.
